In PMC10592010 one finds residence time (RT) data, which are given here for one substance.

The target of the assay is EGFP-tagged full-length AR pQ69 mutant (GFP-ARpQ69) (human) (UniProt P10275). Briefly: live-cell single-particle tracking.

On to “Halo-tagged AR NTD pQ69 with NLS (Halo-ARNTDpQ69-NLS) (from UniProt P10275-1 1-538) (domain or fragment)”, for which the residence time (RT) came to 16 s.
